The results in this text go back to article PMC6204900.

Test [1] addresses human IGF-1 receptor (IGF-1R) on CHO-K1 cells stably transfected with pcDNA3-IGF-1R (human) (UniProt P08069). Nature of the test: radioligand binding; association kinetics; CHO-R+ cells (10^7/mL) in HEPES binding buffer pH 7.6 with about 0.03 nM 125I-labelled ligand at 15 °C; cells pelleted at time points; fit: association kinetics, one concentration of hot (GraphPad Prism 5) with the dissociation rate set; apparent constants.

In test [2] the target is human insulin receptor isoform A (IR-A) on IM-9 lymphocytes (human (endogenous in IM-9)) (UniProt P06213). Nature of the test: radioligand binding; association kinetics; IM-9 cells (10^7/mL) in HEPES binding buffer pH 7.6 with about 0.03 nM 125I-labelled ligand at 15 °C; cells pelleted at time points; fit: association kinetics, one concentration of hot (GraphPad Prism 5) with the dissociation rate set; apparent constants.

For test [3] the target is unchanged. As to the kind of experiment: radioligand binding; dissociation kinetics without cold ligand; IM-9 cells (3x10^7/mL) preincubated with about 0.03 nM 125I-labelled ligand at 15 °C ([…] insulin and analog, 4 h IGF-1), washed, diluted 40 times, 15 °C; one phase exponential decay.
The target in test [4] is human IGF-1 receptor (IGF-1R) on CHO-K1 cells stably transfected with pcDNA3-IGF-1R (human) (UniProt P08069). Nature of the test: radioligand binding; dissociation kinetics without cold ligand; CHO-R+ cells (3x10^7/mL) preincubated with about 0.03 nM 125I-labelled ligand at 15 °C ([…] analog and IGF-1, 7 h insulin), washed, diluted 40 times, 15 °C; one phase exponential decay.

The target of test [5] is IGF-1 receptor (in transfected mouse embryonic fibroblasts R+39) (human) (UniProt P08069). Nature of the test: radioligand binding; whole-cell receptor-binding assay on IGF-1R null mouse embryonic fibroblasts stably transfected with human IGF-1R; each binding curve in duplicate, Kd from at least three curves; details in the supporting information.
Test [6] concerns the target insulin receptor isoform B (human) (UniProt P06213). As to the kind of experiment: radioligand binding; whole-cell receptor-binding assay on IGF-1R null mouse embryonic fibroblasts stably transfected with human IR-B; each binding curve in duplicate, Kd from at least three curves; details in the supporting information.
The target in test [7] is IGF-1 receptor (in transfected mouse embryonic fibroblasts R+39) (human) (UniProt P08069).
The target of test [8] is insulin receptor isoform A (human (endogenous in IM-9)) (UniProt P06213). As to the kind of experiment: radioligand binding; whole-cell receptor-binding assay on human IM-9 lymphocytes (containing IR-A); each binding curve in duplicate, Kd from at least three curves; details in the supporting information.

By kon is commonly meant the second-order rate constant of association. Broadly, the koff is a measure of how fast the partners let go of each other. Read a high koff as fast dissociation. The term Kd denotes a measure of binding affinity in units of concentration.

[Gly^B31, Tyr^B32]-insulin, sequence (P01308 90-110): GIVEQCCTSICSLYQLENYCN
[Gly^B31, Tyr^B32]-insulin, sequence (P01308 other isoform, or with tags, fused parts or gaps): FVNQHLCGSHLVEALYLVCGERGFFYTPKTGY

As for “125I-[D-HisB24, GlyB31, TyrB32]-insulin (ligand)”, the results for the kon in test [1] and in test [2] were 7.83e+07 M⁻¹ s⁻¹ and 5.87e+07 M⁻¹ s⁻¹, respectively. Also, the koff stood at 2.83e-05 s⁻¹ in test [3] and 0.000107 s⁻¹ in test [4]. In test [5], “[D-His^B24, Gly^B31, Tyr^B32]-insulin (from UniProt P01308 90-110) (ligand)” gave a Kd of 0.89 nM. In turn, “[D-His^B24]-des-(B27-B30)-tetrapeptide-B26-carboxamide insulin (from UniProt P01308 90-110) (ligand)” returned a Kd in test [6] of 0.3 nM.

The substance “[Gly^B31, Tyr^B32]-insulin (from UniProt P01308 90-110; P01308 25-54) (ligand)” came in with an autophosphorylation of IGF-1R (immunoblot), IGF-1R-transfected mouse fibroblasts, 10 nM ligand, against insulin; not significant in the analysis of variance in test [7] of 3 fold. For the substance “[Tyr^B25, Phe^B26, Asn^B27, Lys^B28, Pro^B29, Gly^B31, Tyr^B32]-insulin (from UniProt P01308 90-110) (ligand)”, the autophosphorylation of IGF-1R (immunoblot), IGF-1R-transfected mouse fibroblasts, 10 nM ligand, against insulin; not significant in the analysis of variance in test [7] came out at 3 fold.

Take “human insulin-like growth factor 1 (from UniProt P05019 49-118) (ligand)”: the values for the Kd in test [6] and in test [8] were 224 nM and 31.5 nM, respectively. Regarding “insulin-like growth factor 2 (from UniProt P01344 25-91) (ligand)”, the Kd in test [6] was determined as 35.5 nM; in test [8], 2.92 nM; in test [5], 2.32 nM.
